# Source: patent publication US20040072184
# B1: His-tag PDK1 (protein)
# chain: MARTTSQLYDAVPIQSSVVLCSCPSPSMVRTQTESSTPPGIPGGSRQGPAMDGTAAEPRPGAGSLQHAQPPPQPRKKRPEDFKFGKILGEGSFSTVVLARELATSREYAIKILEKRHIIKENKVPYVTRERDVMSRLDHPFFVKLYFTFQDDEKLYFGLSYAKNGELLKYIRKIGSFDETCTRFYTAEIVSALEYLHGKGIIHRDLKPENILLNEDMHIQITDFGTAKVLSPESKQARANSFVGTAQYVSPELLTEKSACKSSDLWALGCIIYQLVAGLPPFRAGNEYLIFQKIIKLEYDFPEKFFPKARDLVEKLLVLDATKRLGCEEMEGYGPLKAHPFFESVTWENLHQQTPPKLTAYLPAMSEDDEDCYGNYDNLLSQFGCMQVSSSSSSHSLSASDTGLPQRSGSNIEQYIHDLDSNSFELDLQFSEDEKRLLLEKQAGGNPWHQFVENNLILKMGPVDKRKGLFARRRQLLLTEGPHLYYVDPVNKVLKGEIPWSQELRPEAKNFKTFFVHTPNRTYYLMDPSGNAHKWCRKIQEVWRQRYQSHPDAAVQ
# B2: GST-SGK2 fusion protein (protein)
# chain: MNSSPAGTPSPQPSRANGNINLGPSANPNAQPTDFDFLKVIGKGNYGKVLLAKRKSDGAFYAVKVLQKKSILKKKEQSHIMAERSVLLKNVRHPFLVGLRYSFQTPEKLYFVLDYVNGGELFFHLQRERRFLEPRARFYAAEVASAIGYLHSLNIIYRDLKPENILLDCQGHVVLTDFGLCKEGVEPEDTTSTFCGTPEYLAPEVLRKEPYDRAVDWWCLGAVLYEMLHGLPPFYSQDVSQMYENILHQPLQIPGGRTVAACDLLQSLLHKDQRQRLGSKADFLEIKNHVFFSPINWDDLYHKRLTPPFNPNVTGPADLKHFDPEFTQEAVSKSIGCTPDTVASSSGASSAFLGFSYAPEDDDILDC
# B3: X-press-CaMK-X1 fusion protein (protein)
# chain: MGRKEEDDCSSWKKQTTNIRKTFIFMEVLGSGAFSEVFLVKQRLTGKLFALKCIKKSPAFRDSSLENEIAVLKKIKHENIVTLEDIYESTTHYYLVMQLVSGGELFDRILERGVYTEKDASLVIQQVLSAVKYLHENGIVHRDLKPENLLYLTPEENSKIMITDFGLSKMEQNGIMSTACGTPGYVAPEVLAQKPYSKAVDCWSIGVITYILLCGYPPFYEETESKLFEKIKEGYYEFESPFWDDISESAKDFICHLLEKDPNERYTCEKALSHPWIDGNTALHRDIYPSVSLQIQKNFAKSKWRQAFNAAAVVHHMRKLHMNLHSPGVRPEVENRPPETQASETSRPSSPEITITEAPVLDHSVALPALTQLPCQHGRRPTAPGGRSLNCLVNGSLHISSSLVPMHQGSLAAGPCGCCSSCLNIGSKGKSSYCSEPTLLKKANKKQNFKSEVMVPVKASGSSHCRAGQTGVCLIM
# B4: GST-DM-PK fusion protein (protein)
# chain: MSAEVRLRRLQQLVLDPGFLGLEPLLDLLLGVHQELGASELAQDKYVADFLQWAEPIVVRLKEVRLQRDDFEILKVIGRGAFSEVAVVKMKQTGQVYAMKIMNKWDMLKRGEVSCFREERDVLVNGDRRWITQLHFAFQDENYLYLVMEYYVGGDLLTLLSKFGERIPAEMARFYLAEIVMAIDSVHRLGYVHRDIKPDNILLDRCGHIRLADFGSCLKLRADGTVRSLVAVGTPDYLSPEILQAVGGGPGTGSYGPECDWWALGVFAYEMFYGQTPFYADSTAETYGKIVHYKEHLSLPLVDEGVPEEARDFIQRLLCPPETRLGRGGAGDFRTHPFFFGLDWDGLRDSVPPFTPDFEGATDTCNFDLVEDGLTAMVSGGGETLSDIREGAPLGVHLPFVGYSYSCMALRDSEVPGPTPMEVEAEQLLEPHVQAPSLEPSVSPQDETAEVAVPAAVPAAEAEAEVTLRELQEALEEEVLTRQSLSREMEAIRTDNQNFASQLREAEARNRDLEAHVRQLQERMELLQAEGATAVTGVPSPRATDPPSHLDGPPAVAVGQCPLVGPGPMHRRHLLLPARVPRPGLSEALSLLLFAVVLSRAAALGCIGLVAHAGQLTAVWRRPGAARAP
# B5: Histidine tagged CaMK-X1 expressed in Sf9 cells (protein)
# chain: B3 chain
# Tests used:
# [1] = molecular target: T1, GST-SGK2 fusion protein
# T1 chain: B2 chain
# [2] = molecular target: T2, PKB-sub peptide
# T2 chain: CKRPRAASFAE
# [3] = molecular target: PDK1 peptide
# [4] = molecular target: T3, Calmodulin Dependent Protein Kinase Substrate
# T3 chain: PLSRTLSVSS
# [5] = molecular target: T4, CREBtide
# T4 chain: KRREILSRRPSYR
# [6] = molecular target: T5, Syntide 2
# T5 chain: PLARTLSVAGLPGKK
# [7] = molecular target: MBP
# [8] = molecular target: Histone H1
# PDK1 peptide, sequence (chain, as listed by the source): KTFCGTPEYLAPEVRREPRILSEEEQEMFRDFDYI
protein,measurement,setting,value
B1,"32P phosphorylation of SGK2 after incubation with PDK1, SDS-PAGE",[1],"SGK2 activated by PKD1 was significantly phosphorylated, while non-activated SGK2 was not"
same,in vitro kinase activity of SGK2 after activation by PDK1,[1],the PDK1 activated SGK2 had significantly higher kinase activity compared to non-activated SGK2
B2,in vitro kinase assay (32P incorporation) with purified SGK2,[2],PKB-sub had significant incorporation of ^32P
same,in vitro kinase assay (32P incorporation) with purified SGK2,[3],addition of same amount of control peptide (PDK1 peptide) had no significant incorporation
B3,in vitro kinase assay (32P incorporation) with immunoprecipitated CaMK-X1,[4],CaMK-X1 could not phosphorylate control peptide
same,in vitro kinase assay (32P incorporation) with immunoprecipitated CaMK-X1,[5],CaMK-X1 phosphorylated CREBtide and Syntide 2 in vitro
same,in vitro kinase assay (32P incorporation) with immunoprecipitated CaMK-X1,[6],CaMK-X1 phosphorylated CREBtide and Syntide 2 in vitro
B4,in vitro kinase assay with DM-PK purified from E. coli,[7],MBP and Histone H1 were both phosphorylated by purified DM-PK in these assays
same,in vitro kinase assay with DM-PK purified from E. coli,[8],MBP and Histone H1 were both phosphorylated by purified DM-PK in these assays
B5,in vitro kinase assay (32P incorporation) with Ni2+ column purified CaMK-X1,[4],Syntide 2and CREBtide had higher incorporation of ^32p than the control peptide
same,in vitro kinase assay (32P incorporation) with Ni2+ column purified CaMK-X1,[5],CREBtide and Syntide 2 are phosphorylated by the purified CaMK-X1
same,in vitro kinase assay (32P incorporation) with Ni2+ column purified CaMK-X1,[6],CREBtide and Syntide 2 are phosphorylated by the purified CaMK-X1
